Our source for the Km values is article PMC5384650.

One may read the Km as the substrate concentration at which the rate is half of its maximum.

Substrate in this data set: NC[C@H](N)C(=O)O
In words: coupled NADH oxidation assay. The format is biochemical, Salmonella enterica. Particulars: ATP, Mg2+ used in place of beta-alanine.

B1: pantothenate synthetase (PanC) (Salmonella enterica subsp. enterica serovar Typhimurium str. LT2) (protein)
chain: MLIIETLPLLRQHIRRLRQEGKRVALVPTMGNLHDGHMKLVDEAKARADVVIVSIFVNPMQFDRPDDLVRYPRTLQEDCEKLNKRKVDYVFAPAVEEIYPHGLEGQTYVDVPGLSTMLEGASRPGHFRGVSTIVSKLFNLIQPDIACFGEKDFQQLALIRKMVADMSYDIEIVGVPIIRAKDGLALSSRNAYLTAEQRKIAPGLYNVMNSIAEKLIAGNRELQEIIAIAEQELNEKGFRADDIQIRDADTLLELTETSKRAVILAAAWLGQARLIDNQSVTLAQ
In the case of B1, the Km came out at 8.1 mM.
